# In IntAct's records for PubMed 20534433:
# B1: Protein RED1 (Saccharomyces cerevisiae), P14291 (parent)
# chain: MEGLKKKIFGVCLKNDLAQTRNETKGIHYGLMTLETSKQLQEFLHLLVIKREVIQNFELLFHIINVAVKITDSNLPSDDIWHFILKLRFSSEINIDEDSKVLNYLLETGIAMENPVSWKCLAVISSILSSVPQSKKIITNLIETEHAKKIGQLFDNIQDLQQGNFLVEILSNCFKKSASNSKKVEKIPQLWQSRSKNKFFFENEFYPFSSKNGSLQTCQFLCNNFMSTLSFTGILRQVSYSGSETLKNLRIFKKKDDENSYFIQCIYNKIYLWLDEKAPLEFERKKIRITKNLKNKIQIKLRQPFHECVRTTADKTALLFNKTKGFQLEFEDEKLGETFFHNVNNIPKISEVQNFLVLDYIEEEPENEGEEEEQIGRADEQKEDEEEESLDELSTPMVYPIKSSIPHNHNEKVQLVTPDRSVSIRSDEWDLKSNTEDEEGNVLADLKISSTKETKRQTDYVHIDSEDQSPVVSAQMRKMRRESTKTLEILRQEFKDKDVQNKEDQSEQIQNPFVNTSSLVVGKSCLVNPKEKPNIDQTVVGITELKSNSSIKKRDINILDTIFGQPPSKKQKQFHKKEKKKQQKKLTNFKPIIDVPSQDKRNLRSNAPTKPKSIKVSKLRTDKKVTGEKSSPETAAEKVDDQTVRSNDEQAMSRATKEKCFPDVNEGKEITKDDAKVSLESKKNNETFVDSSVVEKHTPPDKDCNNCNITDILESTTVIDLQSPHGLSAPGQNTFTNKLQEQIYSSINHFSNELVRKISIINQELNKKILKELSEKYQKLFSELQDNFQNDTNEMLKFMGEIKDMMNLPEDQLVHAIRTRKFDNNKR
# partner: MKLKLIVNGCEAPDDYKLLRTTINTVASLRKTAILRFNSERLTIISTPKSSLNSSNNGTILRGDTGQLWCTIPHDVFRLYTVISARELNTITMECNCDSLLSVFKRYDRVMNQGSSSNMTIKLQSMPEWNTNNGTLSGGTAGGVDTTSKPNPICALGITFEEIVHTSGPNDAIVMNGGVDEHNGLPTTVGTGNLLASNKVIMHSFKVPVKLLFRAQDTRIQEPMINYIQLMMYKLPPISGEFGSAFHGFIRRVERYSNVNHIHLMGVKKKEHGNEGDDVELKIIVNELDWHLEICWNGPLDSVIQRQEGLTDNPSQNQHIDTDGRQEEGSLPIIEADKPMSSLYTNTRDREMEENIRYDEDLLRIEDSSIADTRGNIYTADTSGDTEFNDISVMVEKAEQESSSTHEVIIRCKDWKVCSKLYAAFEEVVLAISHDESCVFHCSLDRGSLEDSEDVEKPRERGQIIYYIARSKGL
# B2: Protein RED1 (Saccharomyces cerevisiae), P14291 (parent)
# chain: B1 chain
# B3: Protein RED1 (Saccharomyces cerevisiae), P14291 (parent)
# chain: B1 chain
# partner: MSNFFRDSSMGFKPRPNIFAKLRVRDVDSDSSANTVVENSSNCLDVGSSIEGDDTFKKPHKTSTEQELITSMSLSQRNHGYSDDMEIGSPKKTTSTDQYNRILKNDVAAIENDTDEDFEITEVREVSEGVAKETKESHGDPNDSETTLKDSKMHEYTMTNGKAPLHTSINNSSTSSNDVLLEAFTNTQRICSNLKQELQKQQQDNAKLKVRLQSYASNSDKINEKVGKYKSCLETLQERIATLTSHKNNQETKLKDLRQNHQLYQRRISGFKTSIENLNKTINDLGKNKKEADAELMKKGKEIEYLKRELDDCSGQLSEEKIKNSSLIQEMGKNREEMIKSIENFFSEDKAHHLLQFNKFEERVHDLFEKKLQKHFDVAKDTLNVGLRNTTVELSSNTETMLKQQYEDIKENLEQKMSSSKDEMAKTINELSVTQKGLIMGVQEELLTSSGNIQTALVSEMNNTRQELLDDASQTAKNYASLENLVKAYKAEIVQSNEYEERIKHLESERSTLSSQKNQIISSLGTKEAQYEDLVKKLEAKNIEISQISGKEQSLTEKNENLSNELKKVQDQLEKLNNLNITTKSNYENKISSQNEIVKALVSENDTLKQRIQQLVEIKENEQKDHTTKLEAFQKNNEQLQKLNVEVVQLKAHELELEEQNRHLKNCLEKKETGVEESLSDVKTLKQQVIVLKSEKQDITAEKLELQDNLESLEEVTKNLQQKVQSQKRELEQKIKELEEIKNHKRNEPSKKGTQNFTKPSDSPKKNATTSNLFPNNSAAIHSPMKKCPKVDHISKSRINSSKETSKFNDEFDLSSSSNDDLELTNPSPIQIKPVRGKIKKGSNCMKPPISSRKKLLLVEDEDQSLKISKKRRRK
# B4: Protein RED1 (Saccharomyces cerevisiae), P14291 (parent)
# chain: B1 chain
# partner: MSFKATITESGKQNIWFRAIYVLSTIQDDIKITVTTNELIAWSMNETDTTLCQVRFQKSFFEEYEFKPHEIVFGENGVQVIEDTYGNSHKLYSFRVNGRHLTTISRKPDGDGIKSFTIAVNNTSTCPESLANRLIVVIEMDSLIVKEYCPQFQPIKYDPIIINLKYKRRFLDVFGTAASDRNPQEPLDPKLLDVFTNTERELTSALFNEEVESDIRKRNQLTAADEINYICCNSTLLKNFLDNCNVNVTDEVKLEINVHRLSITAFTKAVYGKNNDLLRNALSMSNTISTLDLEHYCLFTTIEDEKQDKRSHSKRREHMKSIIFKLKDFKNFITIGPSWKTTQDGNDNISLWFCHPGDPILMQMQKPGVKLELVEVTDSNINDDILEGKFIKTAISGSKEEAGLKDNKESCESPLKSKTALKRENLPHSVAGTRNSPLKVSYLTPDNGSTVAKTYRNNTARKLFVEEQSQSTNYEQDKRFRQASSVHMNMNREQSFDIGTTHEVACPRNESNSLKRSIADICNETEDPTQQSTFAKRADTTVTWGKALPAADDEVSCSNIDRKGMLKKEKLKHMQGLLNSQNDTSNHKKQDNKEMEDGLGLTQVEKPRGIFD
# B5: Protein RED1 (Saccharomyces cerevisiae), P14291 (parent)
# chain: B1 chain
# partner: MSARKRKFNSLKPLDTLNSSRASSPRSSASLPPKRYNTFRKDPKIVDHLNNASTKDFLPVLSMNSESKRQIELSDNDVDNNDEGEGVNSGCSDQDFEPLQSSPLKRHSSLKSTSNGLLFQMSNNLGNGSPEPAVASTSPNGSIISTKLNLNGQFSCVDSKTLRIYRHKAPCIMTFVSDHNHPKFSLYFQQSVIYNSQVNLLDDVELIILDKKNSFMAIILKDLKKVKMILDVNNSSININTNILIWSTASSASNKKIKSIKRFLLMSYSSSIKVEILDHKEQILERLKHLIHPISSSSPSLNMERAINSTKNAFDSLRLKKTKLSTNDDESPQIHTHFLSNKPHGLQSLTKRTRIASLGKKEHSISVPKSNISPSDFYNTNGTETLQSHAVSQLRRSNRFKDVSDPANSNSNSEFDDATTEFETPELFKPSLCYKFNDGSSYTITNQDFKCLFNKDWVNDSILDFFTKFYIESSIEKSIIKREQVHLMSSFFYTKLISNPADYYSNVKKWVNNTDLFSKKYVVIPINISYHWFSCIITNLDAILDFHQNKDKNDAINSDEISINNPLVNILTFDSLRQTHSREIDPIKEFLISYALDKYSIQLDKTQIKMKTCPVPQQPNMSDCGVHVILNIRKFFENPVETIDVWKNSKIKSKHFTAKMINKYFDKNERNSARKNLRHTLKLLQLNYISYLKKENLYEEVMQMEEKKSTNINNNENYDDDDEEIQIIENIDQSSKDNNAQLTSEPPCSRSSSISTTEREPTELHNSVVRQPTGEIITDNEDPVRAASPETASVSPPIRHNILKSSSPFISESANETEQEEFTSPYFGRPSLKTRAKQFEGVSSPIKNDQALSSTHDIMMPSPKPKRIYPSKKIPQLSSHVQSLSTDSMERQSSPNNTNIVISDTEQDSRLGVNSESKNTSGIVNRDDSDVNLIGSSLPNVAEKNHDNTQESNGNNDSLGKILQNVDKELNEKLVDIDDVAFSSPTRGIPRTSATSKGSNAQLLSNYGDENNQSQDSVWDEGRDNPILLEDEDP
# Variants of: B1
# Settings: with mec3_yeast MEC3, Q02574
row,Variant,effect of a mutation on the interaction
1,Q537A;V540A,disrupting interaction strength

# Variants of: B2
# Settings: with smt3_yeast SMT3, Q12306
# smt3_yeast SMT3, Q12306, sequence (Q12306 whole entry): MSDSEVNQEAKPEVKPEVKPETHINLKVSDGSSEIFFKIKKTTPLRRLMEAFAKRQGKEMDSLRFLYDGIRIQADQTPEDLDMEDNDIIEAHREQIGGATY
row,Variant,effect of a mutation on the interaction
1,K569R;K570R;K572R;K576R;K577R,disrupting interaction strength
2,K569R;K570R;K572R;K576R;K577R;K579R;K580R;K581R;K584R;K585R;K590R,disrupting interaction strength

# Variants of: B3
# Settings: with zip1_yeast ZIP1, P31111
row,Variant,effect of a mutation on the interaction
1,K569R;K570R;K572R;K576R;K577R;K579R;K580R;K581R;K584R;K585R;K590R,disrupting interaction strength

# Variants of: B4
# Settings: with ddc1_yeast DDC1, Q08949
row,Variant,effect of a mutation on the interaction
1,I743A,disrupting interaction strength

# Variants of: B5
# Settings: with ulp2_yeast ULP2, P40537
row,Variant,effect of a mutation on the interaction
1,K569R;K570R;K572R;K576R;K577R;K579R;K580R;K581R;K584R;K585R;K590R,disrupting interaction strength
